The assay deals with GST-IRP2Δ73 (human) (UniProt P48200). Put plainly: AlphaScreen or HTRF. For orientation: In Alpha technology, singlet oxygen from a donor bead excites a nearby acceptor bead.

What is called IC50 is the point on the concentration scale where inhibition reaches its midpoint. For “FBXL5C492Δ-SKP1 complex (tag-free) (from UniProt Q9UKA1 200-691; P63208 1-163)”, the IC50 is 120 pM.

(Values after publication PMC7159994.)
